The results in this text go back to patent US20070078102A1, “NF-kB oligonucleotide decoy molecules” (published 2007).

The target of series [1] is T1, NF-kB p65/p50 heterodimer (RelA/NFKB1) (Homo sapiens, UniProt Q04206;P19838 Q04206:1-551,P19838:1-433). As to the kind of experiment: EMSA; competition vs 32P 113/114 probe. To be noted: protein: extract; tags: none; nuclear extract of LPS-stimulated THP-1 cells. The source says: (§1) The EMSA assay was employed to characterize oligonucleotide decoys for the NF-κB transcription factor. […] Using the above modified oligonucleotides to compete for binding for the above-mentioned NF-κB family members, it was possible to compare the binding affinity of these oligonucleotides against the high affinity radiolabeled probe and each other. This assay has also enabled the design of a decoy which selectively binds particular members of the NF-κB family. By using increasing concentrations of various oligonucleotides, it was observed that, by deleting or changing targeted residues in the binding site, it was possible to specifically decrease the binding of the decoy molecule to p50/p50 homodimers, while retaining the affinity for p65/p50 and cRel/p50 heterodimers.
(§2) The NF-κB gel shift assays (EMSA) were performed as follows. A double-stranded oligonucleotide containing a consensus NF-κB binding site (5′ […] 3′) (SEQ ID NO: 78) was end-labeled with γ³²P-ATP using T4 Polynucleotide Kinase (Promega). Alternatively, a double-stranded ODN containing a consensus NF-κB binding site from the IL-6 promoter (5′ […] 3′) (SEQ ID NO: 94) was end-labeled with γ³²P-ATP using T4 Polynucleotide Kinase (Promega). One microgram of a nuclear extract prepared from LPS stimulated THP-1 cells (human monocyte cell line) was incubated with 35 fmol of radiolabeled probe in the presence or absence of competing unlabeled NF-κB double-stranded oligonucleotides (dsODN) or scrambled dsODN. The incubations were carried out at room temperature for 30 minutes in a 20 μl reaction volume composed of 10 mM Tris-HCl pH 8, 100 mM KCL, 5 mM MgCl2, 2 mM DTT, 10% Glycerol, 0.1% NP-40, 0.025% BSA and 1 μg Poly-dIdC. The reactions were loaded onto a 6% polyacrylamide gel, subjected to electrophoresis and dried. The dried gels were imaged and quantitated using a Typhoon 8600 PhosphorImager (Amersham) and ImageQuant software.
Background: A gel shift assay detects complexes by their altered migration in electrophoresis.
Target sequence in this assay (Q04206 whole entry, chain 1 of 2, one chain of several): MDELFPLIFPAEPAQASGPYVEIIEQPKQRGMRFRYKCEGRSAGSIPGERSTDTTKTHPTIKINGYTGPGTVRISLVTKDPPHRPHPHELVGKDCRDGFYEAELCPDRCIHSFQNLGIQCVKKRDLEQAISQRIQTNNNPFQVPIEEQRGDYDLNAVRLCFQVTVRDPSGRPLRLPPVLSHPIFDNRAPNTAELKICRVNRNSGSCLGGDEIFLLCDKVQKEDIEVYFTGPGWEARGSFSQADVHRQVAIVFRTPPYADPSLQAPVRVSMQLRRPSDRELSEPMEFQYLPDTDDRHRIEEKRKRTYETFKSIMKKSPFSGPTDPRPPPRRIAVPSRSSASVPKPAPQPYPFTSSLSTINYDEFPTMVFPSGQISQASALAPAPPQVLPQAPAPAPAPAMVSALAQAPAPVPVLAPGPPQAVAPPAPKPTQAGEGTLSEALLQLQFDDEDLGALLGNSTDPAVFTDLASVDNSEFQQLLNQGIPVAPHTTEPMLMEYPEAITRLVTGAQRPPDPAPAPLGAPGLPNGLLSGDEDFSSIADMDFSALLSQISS

The target in series [2] is T2, NF-kB p50/p50 homodimer (NFKB1) (Homo sapiens, UniProt P19838 P19838:1-433). As to the kind of experiment: EMSA; competition vs 32P 113/114 probe. Particulars: protein: extract; tags: none; nuclear extract of LPS-stimulated THP-1 cells; chain copies: 2 (stated homodimer).
Source text: as §1, §2

In series [3] the target is T2, NF-kB p50/p50 homodimer (NFKB1). As to the kind of experiment: competition; EMSA competition vs HIV NF-kB probe 113/114. Particulars: protein: extract; tags: endogenous, nuclear extract of LPS-stimulated THP-1 cells; chain copies: 2 (stated).
Source text: as §1, §2

For series [4], the target named is T1, NF-kB p65/p50 heterodimer (RelA/NFKB1). As to the kind of experiment: EMSA; competition vs 32P 113/114 probe, THP-1 nuclear extract, RT. To be noted: protein: extract; tags: none; nuclear extract of LPS-stimulated THP-1 cells.
Source text: as §1
The NF-κB gel shift assays (EMSA) were performed as follows. A double-stranded oligonucleotide containing a consensus NF-κB binding site (5′ […] 3′) (SEQ ID NO: 78) was end-labeled with γ³²P-ATP using T4 Polynucleotide Kinase (Promega). Alternatively, a double-stranded ODN containing a consensus NF-κB binding site from the IL-6 promoter (5′ […] 3′) (SEQ ID NO: 94) was end-labeled with γ³²P-ATP using T4 Polynucleotide Kinase (Promega). […] The dried gels were imaged and quantitated using a Typhoon 8600 PhosphorImager (Amersham) and ImageQuant software.
Target sequence in this assay (Q04206 whole entry, one chain of several): as the sequence (Q04206 whole entry, chain 1 of 2, one chain of several) above

Series [5] addresses T3, NF-κB p65 from nuclear extract of LPS stimulated THP-1 cells (human monocyte cell line) (human, UniProt Q04206 1-551).
T3 construct: also called RelA
As to the kind of experiment: EMSA with antibody supershift, THP-1 nuclear extract; heterodimer on DNA probe. The protocol:
as §2, with “software. […]” for “software.”

T3 sequence (Q04206 whole entry): as the sequence (Q04206 whole entry, chain 1 of 2, one chain of several) above

B1: decoy 221 C-X (dsDNA)
DNA 1: CTGGGGACTTTCCCTC
DNA 2: GAGGGAAAGTCCCCAG
Turning to B1, the IC50 in series [1] and in series [2] was 25 fold molar excess each time.

B2: decoy 207 L-Z (dsDNA)
DNA 1: AGTTGAGGACTTTCCCAGGC
DNA 2: GCCTGGGAAAGTCCTCAACT
Regarding B2, the IC50 in series [1] was 20 fold molar excess; in series [2], 45 fold molar excess.

B3: 153/154 H10/H10 (dsDNA)
DNA 1: AGTTGAGGACTTTCCAGGC
DNA 2: GCCTGGAAAGTCCTCAACT
modifications: 10 3'-most linkages PS on both strands
In the case of B3, in series [3], the IC50 was found to be 42 fold molar excess.

B4: decoy 113/114 C-Z (HIV NF-kB promoter) (dsDNA)
DNA 1: AGTTGAGGGGACTTTCCCAGGC
DNA 2: GCCTGGGAAAGTCCCCTCAACT
Take B4: the IC50 in series [2] and in series [4] was 5 fold molar excess each time.

B5: 153/154 H8/H8 (dsDNA)
DNA 1: AGTTGAGGACTTTCCAGGC
DNA 2: GCCTGGAAAGTCCTCAACT
modifications: 8 3'-most linkages PS on both strands
In series [3], B5 had an IC50 of 53 fold molar excess.

B6: NF-κB p50 from nuclear extract of LPS stimulated THP-1 cells (human monocyte cell line) (other, UniProt P19838 1-433, looked up)
chain: MAEDDPYLGRPEQMFHLDPSLTHTIFNPEVFQPQMALPTDGPYLQILEQPKQRGFRFRYVCEGPSHGGLPGASSEKNKKSYPQVKICNYVGPAKVIVQLVTNGKNIHLHAHSLVGKHCEDGICTVTAGPKDMVVGFANLGILHVTKKKVFETLEARMTEACIRGYNPGLLVHPDLAYLQAEGGGDRQLGDREKELIRQAALQQTKEMDLSVVRLMFTAFLPDSTGSFTRRLEPVVSDAIYDSKAPNASNLKIVRMDRTAGCVTGGEEIYLLCDKVQKDDIQIRFYEEEENGGVWEGFGDFSPTDVHRQFAIVFKTPKYKDINITKPASVFVQLRRKSDLETSEPKPFLYYPEIKDKEEVQRKRQKLMPNFSDSFGGGSGAGAGGGGMFGSGGGGGGTGSTGPGYSFPHYGFPTYGGITFHPGTTKSNAGMKHG
B6: the binding result in series [5] is reported as “binds”.

B7: 153/154 H11/PO (dsDNA)
DNA 1: AGTTGAGGACTTTCCAGGC
DNA 2: GCCTGGAAAGTCCTCAACT
modifications: strand 153: 11 3'-most linkages PS, strand 154 all PO
In series [3], B7 registered an IC50 of 33 fold molar excess.

B8: 153/154 H5/PO (dsDNA)
DNA 1: AGTTGAGGACTTTCCAGGC
DNA 2: GCCTGGAAAGTCCTCAACT
modifications: strand 153: 5 3'-most linkages PS, strand 154 all PO
Take B8: the IC50 in series [3] is 83 fold molar excess.

B9: 153/154 H9/H9 (dsDNA)
DNA 1: AGTTGAGGACTTTCCAGGC
DNA 2: GCCTGGAAAGTCCTCAACT
modifications: 9 3'-most linkages PS on both strands
As for B9, in series [3], the IC50 was found to be 30 fold molar excess.

B10: 153/154 H10/H8 (dsDNA)
DNA 1: AGTTGAGGACTTTCCAGGC
DNA 2: GCCTGGAAAGTCCTCAACT
modifications: strand 153: 10 3'-most linkages PS, strand 154: 8 3'-most PS
The molecule B10 registered an IC50 in series [3] of 21 fold molar excess.

B11: decoy 121 A-V (dsDNA)
DNA 1: TCGGGACTTTCCTC
DNA 2: GAGGAAAGTCCCGA
For the molecule B11, the IC50 in series [1] was found to be 25 fold molar excess; in series [2], 34 fold molar excess.

B12: 153/154 H8/H10 (dsDNA)
DNA 1: AGTTGAGGACTTTCCAGGC
DNA 2: GCCTGGAAAGTCCTCAACT
modifications: strand 153: 8 3'-most linkages PS, strand 154: 10 3'-most PS
In series [3], B12 had an IC50 of 39 fold molar excess.
